Experimental data published in US11278600B2, “Human alpha-galactosidase variants” (Codexis, Inc., priority 2014, dated 2022).

How the values were obtained:
[1] = Serum pharmacokinetics of purified GLA variants in rats; assay type: in vivo, Sprague-Dawley rats; conditions: rat, intravenous 1 mg/ml at 1 ml/kg; four hours post-administration
Procedure: Purified GLA variants produced as described in Example 4 were assessed for stability in the serum of live rats. WT GLA (SEQ ID NO:5) or SEQ ID NO:42 at 1 mg/ml were administered intravenously at 1 ml/kg to three naïve jugular vein cannulated Sprague-Dawley rats (7-8 weeks old) each. Prior to administration and at 5, 15, 30, 60, 120, and 240 minutes post-administration, […] was collected from each rat in an EDTA tube and centrifuged at 4° C. and 6000 rpm to generate >80 μL of serum per sample. Samples were frozen and stored on dry ice prior to analysis. For analysis, serum (10 μL) was added to 40 μL of 5 mM MUGal in McIlvaine buffer pH 4.4, and incubated at 37° C. for 1 h. Samples were quenched with 50 μL of 1 M sodium carbonate, diluted 1:100 in 1 M sodium carbonate and analyzed by fluorescence spectroscopy (Ex. 355, Em. 448). Four hours post-administration SEQ ID NO:42 retained 15.3% of maximal activity, while WT GLA retained only 0.66% (See, FIG. 9).

[2] = Thermostability of purified GLA variants (Sypro Orange melting); assay type: physicochemical; conditions: purified enzyme 20 μg/ml in 1×PBS, 30 to 75° C. at 0.5° C./min
Procedure: (§1) GLA variants were purified from mammalian culture supernatant essentially as known in the art (See, Yasuda et al., Prot. Exp. Pur., 37, 499-506 [2004]). Concanavalin A resin (Sigma Aldrich) was equilibrated with 0.1 M sodium acetate, 0.1 M NaCl, 1 mM MgCl2, CaCl2, and MnCl2 pH 6.0 (Con A binding buffer). Supernatant was diluted 1:1 with binding buffer and loaded onto the column. The column was washed with 15 volumes of Concanavalin A binding buffer, and samples were eluted by the addition of Concanavalin A binding buffer including 0.9 M methyl-α-D-mannopyranoside and 0.9 M methyl-α-D-glucopyranoside. Eluted protein was concentrated and buffer exchanged three times using a Centricon® Plus-20 filtration unit with a 10 kDa molecular weight cut off (Millipore) into ThioGal binding buffer (25 mM citrate-phosphate, 0.1 M NaCl, pH 4.8). Buffer exchanged samples were loaded onto a Immobilized-D-galactose resin (Pierce) equilibrated with ThioGal binding buffer. The resin was washed with six volumes of ThioGal binding buffer and eluted with 25 mM citrate phosphate, 0.1 M NaCl, 0.1 M D-galactose, pH 5.5. […]
The thermostability of WT GLA (SEQ ID NO:5) and SEQ ID NO:42 were determined to assess their overall stability. […] The plates were heated from 30 to 75° C. at 0.5° C./min on a RT-PCR machine and Sypro Orange fluorescence was monitored. […]

[3] = Thermostability of GLA variants expressed in HEK293T cells; assay type: biochemical; conditions: HEK293T supernatants; 30-54° C. for 1 h; residual MUGal activity
[4] = Activity on alternative substrate NBD-GB3 (TLC); assay type: biochemical; conditions: HEK293T culture supernatant, pH 4.8, 37° C., 1 h
Procedure: To confirm that improved activity in MUGal hydrolysis corresponded to more native substrates, mammalian cell-expressed GLA variants were assayed using N-Dodecanoyl-NBD-ceramide trihexoside (NBD-GB3) as substrate. HEK293T culture supernatant (10 μL), 100 mM sodium citrate pH 4.8 (80 μL), and NBD-GB3 (0.1 mg/ml) in 10% ethanol (10 μL) were added to microcentrifuge tubes. Samples were inverted to mix, and incubated at 37° C. for 1 h. The reaction was quenched via addition of 50 μL, methanol, diluted with 100 μL, chloroform, vortexed and the organic layer was isolated for analysis. The organic phase (10 μL) was spotted onto a silica plate and analyzed by thin layer chromatography (chloroform:methanol:water, 100:42:6), detecting the starting material and product using a 365 nm UV lamp.

[5] = pH stability of purified GLA variants over time; assay type: biochemical; conditions: purified enzyme; McIlvaine buffer pH 4.1 or 7.5, 0-24 h at 37° C.
Procedure: as §1, with “buffer.” for “buffer. The resin was washed with six volumes of ThioGal binding buffer and eluted with 25 mM citrate phosphate, 0.1 M NaCl, 0.1 M D-galactose, pH 5.5.”
To confirm that purified GLA variants show the desired pH stability observed after expression in yeast, WT GLA (SEQ ID NO:5) and SEQ ID NO:42 were incubated in acidic or basic buffers and analyzed for residual activity. […] Samples were quenched with 100 μL, of 1 M sodium carbonate, diluted 1:4 in 1 M sodium carbonate and analyzed by fluorescence spectroscopy (Ex. 355, Em. 448).

Molecule	GLA activity retained in serum, % of maximal activity [1]	melting temperature [2]	increase of Tm of the enzyme [3]	conversion of NBD-GB3 [4]	stability (residual activity) under acid and basic challenge compared to WT GLA [5]
WT GLA: wild-type mature human alpha galactosidase A (GLA), polypeptide sequence of SEQ ID NO: 5 [reference compound]	0.66%	37 °C			
Variant 218: GLA variant; M322I/E367N/R373K relative to SEQ ID NO: 10 (protein, Synthetic Polypeptide sequence of Variant No. 218) LDNGLARTPTMGWLHWERFMCNLDCQEEPDSCISEKLFMEMAELMVSEGWKDAGYEYLCIDDCWMAPQRDSEGRLQADPQRFPHGIRQLANYVHSKGLKLGIYADVGNKTCAGFPGSFGYYDIDAQTFADWGVDLLKFDGCYCDSLENLADGYKHMSLALNRTGRSIVYSCEWPLYMWPFQKPNYTEIRQYCNHWRNFADIDDSWASIKSILDWTSFNQERIVDVAGPGGWNDPDMLVIGNFGLSWNQQVTQMALWAIMAAPLFMSNDLRHISPQAKALLQDKDVIAINQDPLGKQGYQLRQGDNFEVWERPLSGLAWAVAIINRQEIGGPRSYTIAVASLGKGVACNPACFITQLLPVKRKLGFYNWTSRLKSHINPTGTVLLQLENTMQMSLKDLL			4 °C	Significant conversion	
Variant 402: GLA variant; polypeptide sequence of SEQ ID NO: 42 (protein, Synthetic Polypeptide sequence of Variant No. 402) LDNGLARTPTMGWLHWERFMCNLDCQEEPDSCISEKLFMEMAERMVSEGWKDAGYEYLCIDDCWMAPQRDSEGRLQADPQRFPHGIRQLANYVHSKGLKLGIYADVGNKTCAGFPGSFGYYDIDAQTFADWGVDLLKFDGCYCDSLENLADGYKHMSLALNRTGRPIVYSCEWPLYMWPFQKPNYTEIRQYCNHWRNFADIDDSWASIKSILDWTSRNQERIVDVAGPGGWNDPDMLVIGNFGLSWDQQVTQMALWAIMAAPLFMSNDLRHISPQAKALLQDKDVIAINQDPLGKQGYQLRKGDNFEVWERPLSGDAWAVAIINRQEIGGPRSYTIPVASLGKGVACNPACFITQLLPVKRQLGFYNWTSRLKSHINPTGTVLLQLENTMQMSLKDLL	15.3%	55 °C			considerably more stable
